According to patent US20160193316A1 (priority 1994, published 2016):
Like-named read-outs stand apart in the source and are kept apart here.

How the values were obtained:
DRB1*0401 (DR4w4) = molecular target: T1, DRB1*0401 (DR4w4) (Homo sapiens, UniProt P01903+P01911, A100K/A169T/F76Y/I96L/K127E/L162R/M171V/N62H/P40V/Q125Y/R42H/S133A/S149N/S66Y/V115G/V209L/W38E); assay: HLA class II peptide binding assay; conditions: for DR4w4 binding data: Table XIXb; for DR4w4 binding information: DR3a motif peptides, unit not given, exemplary 15-mer containing the core sequence
T1 construct: endogenous in cells; host or cells: Preiss

HLA-A*0201 = HLA-A*0201 (Homo sapiens, UniProt P04439, D140Y/D185E/D98H/E176V/E277Q/G131W/G231S/I119V/I121R/I166T/I218V/L300P/L318F/N151K/N90K/P208A/P217A/Q86G/Q94H/R138H/R169H/T345S); assay: HLA class I peptide binding assay
DRB1*1201 (DR5w12) = molecular target: T2, DRB1*1201 (DR5w12) (Homo sapiens, UniProt P01903+P01911, A100R/A169T/D57E/D86V/F55L/H45Y/K41T/L162R/M171V/P40S/Q125H/Q178H/Q39Y/Q99D/R42G/S66L/T262R/V114A/V67L/W38E/Y59H/Y61H/Y89S); assay: HLA class II peptide binding assay; conditions: for DR5w12 binding data: Table XIXb; for DR5w12 binding information: DR3a motif peptides, unit not given, exemplary 15-mer containing the core sequence
T2 construct: endogenous in cells; host or cells: Herluf

DRB1*0802 (DR8w2) = molecular target: T3, DRB1*0802 (DR8w2) (Homo sapiens, UniProt P01903+P01911, A100R/A103L/A169T/F76Y/H45Y/I96F/K41T/L162R/M171V/P40S/Q125H/Q178H/Q39Y/Q99D/R218S/R42G/S66Y/V115G/W38E); assay: biochemical; type: binding
T3 construct: endogenous in cells; host or cells: OLL

DRB1*0301 (DR3) = molecular target: T4, DRB1*0301 (DR3) (Homo sapiens, UniProt P01903+P01911, A100K/A102G/A103R/A169T/F55Y/I96L/K41T/L162R/M171V/P40S/Q125H/Q178H/Q39Y/R42S/S66N/T106N/T262R/W38E/Y61H); assay: HLA class II peptide binding assay (pH 4.5); conditions: for DR3 binding information: unit not given; for DR3 binding data: Table XIXb
T4 construct: endogenous in cells; host or cells: MAT

HLA-B*0702 = molecular target: T5, HLA-B*0702 (Homo sapiens, UniProt P01889); assay: HLA class I peptide binding assay; conditions: Malaria B07 super motif peptides; binding value, no unit
T5 construct: endogenous in cells; host or cells: GM3107

DRB5*0101 (DR2w2β2) = molecular target: T6, DRB5*0101 (DR2w2β2) (Homo sapiens, UniProt P01903+Q30154); type: binding
T6 construct: expressed in transfected cells; host or cells: L416.3 (fibroblasts) or GM3107

DRB1*0405 (DR4w15) = molecular target: T7, DRB1*0405 (DR4w15) (Homo sapiens, UniProt P01903+P01911, A100R/A169T/D86S/F76Y/I96L/K127E/L162R/M171V/N62H/P40V/Q125Y/R42H/S133A/S149N/S66Y/V115G/V209L/W38E); assay: HLA class II peptide binding assay; conditions: for DR4w15 binding data: Table XIXb; for DR4w15 binding information: DR3a motif peptides, unit not given, exemplary 15-mer containing the core sequence
T7 construct: endogenous in cells; host or cells: KT3

DRB1*0901 (DR9) = molecular target: T8, DRB1*0901 (DR9) (Homo sapiens, UniProt P01903+P01911, A100R/A103E/D57H/D86V/F55Y/F60I/F76Y/I96F/K127E/L162R/M171V/P40D/Q125H/Q99R/R33Q/R42F/S133A/S66N/T210M/V115G/W38K/Y107V/Y59G/Y89S); assay: biochemical; type: binding
T8 construct: endogenous in cells; host or cells: HID

DRB1*1302 (DR6w19) = molecular target: T9, DRB1*1302 (DR6w19) (Homo sapiens, UniProt P01903+P01911, A100E/A169T/K41T/L162R/M171V/P40S/Q125H/Q178H/Q39Y/Q99D/R42S/S66N/T262R/V115G/W38E/Y61H); assay: HLA class II peptide binding assay; conditions: for DR6w19 binding data: Table XIXb
T9 construct: endogenous in cells; host or cells: H0301

DRB1*0701 (DR7) = molecular target: T10, DRB1*0701 (DR7) (Homo sapiens, UniProt P01903+P01911, A100R/A102G/A103Q/D57E/D86V/E43K/F76Y/K127E/L162R/M171V/P40G/Q125H/Q99D/R33Q/R42Y/R54Q/S133A/S66F/T210M/V115G/Y107V/Y59L/Y89S); assay: biochemical; type: binding
T10 construct: endogenous in cells; host or cells: Pitout

HLA-A*2402 = HLA-A*2402 (Homo sapiens, UniProt P04439, D101N/D140Y/D185E/E176V/E190D/F33S/G103R/G107R/I119L/I121M/I306V/K335N/L105A/L180Q/L300P/N151K/N90K/Q86E/Q94H/R106L/R138H/R89G/T104I/T345S/V100E/W191G/Y123F); assay: HLA class I peptide binding assay; conditions: unit not given
DRB1*0101 (DR1) = molecular target: T11, DRB1*0101 (DR1) (Homo sapiens, UniProt P01903+P01911, A100R/D57E/F55L/F60I/F76Y/I96L/L162R/M171V/P40L/Q125E/R42F/V115G/Y59C); assay: HLA class II peptide binding assay; conditions: for DR1 binding data: Table XIXb, Malaria Super Motif Peptides With Binding Data; for DR1 binding information: DR3a motif peptides, unit not given, exemplary 15-mer containing the core sequence
T11 construct: endogenous in cells; host or cells: LG2

DRB1*1501 (DR2w2β1) = molecular target: T12, DRB1*1501 (DR2w2β1) (Homo sapiens, UniProt P01903+P01911); assay: HLA class II peptide binding assay; conditions: for DR2w2β1 binding data: Table XIXb
T12 construct: expressed in transfected cells; host or cells: L466.1 (fibroblasts)

DRB1*1101 (DR5w11) = molecular target: T13, DRB1*1101 (DR5w11) (Homo sapiens, UniProt P01903+P01911, A100R/A169T/A87E/I96F/K41T/L162R/M171V/P40S/Q125H/Q178H/Q39Y/Q99D/R42S/S66Y/T262R/V115G/W38E); assay: biochemical; type: binding
T13 construct: endogenous in cells; host or cells: Sweig

DRB4*0101 (DRw53) = molecular target: T14, DRB4*0101 (DRw53) (Homo sapiens, UniProt P01903+P13762, G164S); assay: HLA class II peptide binding assay (pH 5.0); conditions: for DRw53 binding information: DR3a motif peptides, unit not given, exemplary 15-mer containing the core sequence; for DRw53 binding data: Table XIXb
T14 construct: expressed in transfected cells; host or cells: L257.6 (fibroblasts)

[1] = Malaria A02 motif peptides, Table VIII, unit not given
[2] = DR3a motif peptides, unit not given, exemplary 15-mer containing the core sequence
[3] = DR3a motif peptides, exemplary 15-mer containing the core sequence

T11 sequence (P01903 26-254 partner, other chains not shown): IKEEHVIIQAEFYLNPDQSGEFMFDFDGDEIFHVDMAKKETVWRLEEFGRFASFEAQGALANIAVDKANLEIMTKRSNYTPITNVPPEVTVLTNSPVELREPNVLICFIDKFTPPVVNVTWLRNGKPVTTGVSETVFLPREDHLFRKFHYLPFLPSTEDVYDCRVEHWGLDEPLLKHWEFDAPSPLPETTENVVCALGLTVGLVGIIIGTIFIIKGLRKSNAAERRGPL
T1 sequence (P01903 26-254 partner, other chains not shown): as above
T13 sequence (P01903 26-254, other chains not shown): as the sequence (P01903 26-254 partner, other chains not shown) above
T9 sequence (P01903 26-254, other chains not shown): as the sequence (P01903 26-254 partner, other chains not shown) above

VIGPFMKAV
DR4w4 binding data (DRB1*0401 (DR4w4)): -0.0020 | A*0201 (binding information) (HLA-A*0201; [1]): 0.0004 | DR5w12 binding data (DRB1*1201 (DR5w12)): 0.0920 | DR8w2 binding data (DRB1*0802 (DR8w2)): 0.0230

QLVVILIDGI
A*0201 (binding information) (HLA-A*0201; [1]): 0.0002

ALLQVRKHL
A*0201 (binding information) (HLA-A*0201; [1]): 0.0010 | DR3 binding information (DRB1*0301 (DR3); Malaria DR3b motif peptides): -0.0033

DPNRNVDBIA (EQPQGDDNNL)
B*0702 (binding information) (HLA-B*0702): 0.0002

ILSVSSFLFV
A*0201 (binding information) (HLA-A*0201): 0.0300

FYFILVNLL
DR2w2β2 binding data (DRB5*0101 (DR2w2β2)): 0.0044 | DR4w15 binding data (DRB1*0405 (DR4w15)): -0.0009 | DR9 binding data (DRB1*0901 (DR9)): -0.0003 | DR6w19 binding data (DRB1*1302 (DR6w19)): 0.0003 | DR4w4 binding data (DRB1*0401 (DR4w4)): 0.0210 | DR7 binding data (DRB1*0701 (DR7)): 0.0020 | HLA-A24 binding value (HLA-A*2402; HLA class I binding value as printed in column headed A*201 of Table X): 7.5000 | A*2401 (binding information, Malaria A24 motif peptides) (HLA-A*2402; HLA-A*2401 binding value as printed): 7.5000 | DR1 binding data (DRB1*0101 (DR1)): 0.0029 | DR2w2β1 binding data (DRB1*1501 (DR2w2β1)): 0.0040 | DR5w12 binding data (DRB1*1201 (DR5w12)): 0.0006 | DR3 binding data (DRB1*0301 (DR3)): -0.0008 | DR8w2 binding data (DRB1*0802 (DR8w2)): 0.0010 | DR5w11 binding data (DRB1*1101 (DR5w11)): 0.0011

ILTDGIPDS
DR2w2β2 binding information (DRB5*0101 (DR2w2β2)): -0.0006 | DR4w15 binding information (DRB1*0405 (DR4w15)): -0.0014 | DR9 binding information (DRB1*0901 (DR9)): 0.0014 | DR6w19 binding information (DRB1*1302 (DR6w19); [2]): 0.0002 | DR4w4 binding information (DRB1*0401 (DR4w4)): 0.3600 | DRw53 binding information (DRB4*0101 (DRw53)): 0.0480 | DR7 binding information (DRB1*0701 (DR7)): 0.0046 | DR1 binding information (DRB1*0101 (DR1)): 0.0002 | DR2w2β1 binding information (DRB1*1501 (DR2w2β1); [2]): 0.0001 | DR5w12 binding information (DRB1*1201 (DR5w12)): 0.0002 | DR3 binding information (DRB1*0301 (DR3); [3]): 0.1400 | DR8w2 binding information (DRB1*0802 (DR8w2)): -0.0003 | DR5w11 binding information (DRB1*1101 (DR5w11)): -0.0004

IPEDSEKEV
DR3 binding information (DRB1*0301 (DR3); [3]): -0.0130 | B*0702 (binding information) (HLA-B*0702): 0.0001

VLLGGVCLVL
A*0201 (binding information) (HLA-A*0201; [1]): 0.0290

LAGGLALLA
A*0201 (binding information) (HLA-A*0201; [1]): 0.0001

VSTVLLGGV
DR2w2β2 binding data (DRB5*0101 (DR2w2β2)): -0.0005 | DR4w15 binding data (DRB1*0405 (DR4w15)): -0.0014 | DR9 binding data (DRB1*0901 (DR9)): -0.0005 | DR6w19 binding data (DRB1*1302 (DR6w19)): 0.0006 | DR4w4 binding data (DRB1*0401 (DR4w4)): 0.0016 | DRw53 binding data (DRB4*0101 (DRw53)): -0.0005 | DR7 binding data (DRB1*0701 (DR7)): -0.0003 | DR1 binding data (DRB1*0101 (DR1)): 0.0140 | DR2w2β1 binding data (DRB1*1501 (DR2w2β1)): 0.0001 | DR5w12 binding data (DRB1*1201 (DR5w12)): 0.0005 | DR3 binding data (DRB1*0301 (DR3)): -0.0008 | DR8w2 binding data (DRB1*0802 (DR8w2)): -0.0003 | DR5w11 binding data (DRB1*1101 (DR5w11)): -0.0002

LLMDCSGSI
DR2w2β2 binding information (DRB5*0101 (DR2w2β2)): 0.0250 | DR4w15 binding information (DRB1*0405 (DR4w15)): 0.0028 | DR4w4 binding information (DRB1*0401 (DR4w4)): 0.0340 | DRw53 binding information (DRB4*0101 (DRw53)): 0.0057 | DR7 binding information (DRB1*0701 (DR7)): 0.0072 | DR1 binding information (DRB1*0101 (DR1)): 0.0041 | A*0201 (binding information) (HLA-A*0201; [1]): 0.0460 | DR5w12 binding information (DRB1*1201 (DR5w12)): 0.0001 | DR3 binding information (DRB1*0301 (DR3); [3]): 0.0300 | DR8w2 binding information (DRB1*0802 (DR8w2)): 0.0014 | DR5w11 binding information (DRB1*1101 (DR5w11)): -0.0002

KLRICPICHKKL
A*0201 (binding information) (HLA-A*0201; [1]): 0.0001

WVNHAVPLA
DR2w2β2 binding data (DRB5*0101 (DR2w2β2)): 0.1600 | DR4w15 binding data (DRB1*0405 (DR4w15)): 0.0360 | DR9 binding data (DRB1*0901 (DR9)): 4.6000 | DR6w19 binding data (DRB1*1302 (DR6w19)): 0.8900 | DR4w4 binding data (DRB1*0401 (DR4w4)): 5.0000 | DRw53 binding data (DRB4*0101 (DRw53)): 0.0430 | DR7 binding data (DRB1*0701 (DR7)): 0.4400 | DR1 binding data (DRB1*0101 (DR1)): 0.1900 | DR2w2β1 binding data (DRB1*1501 (DR2w2β1)): 0.0350 | A*0201 (binding information) (HLA-A*0201; [1]): 0.0008 | DR5w12 binding data (DRB1*1201 (DR5w12)): 0.0240 | DR3 binding data (DRB1*0301 (DR3)): 0.4000 | DR8w2 binding data (DRB1*0802 (DR8w2)): 1.8000 | DR5w11 binding data (DRB1*1101 (DR5w11)): 0.0079
